# Data published in article PMC11559096.
# How the values were obtained:
# [1] = biological target: MHV-2 S2 fragments made by trypsin after receptor binding (69 and 67 kDa) (mouse hepatitis virus type 2 (MHV-2)); test: SDS-PAGE of samples heated in 1% SDS (dissociation temperature of the trimer); MHV-2 with receptor, then trypsin at 37°C, in the presence of the HR2-peptide; 5 mM Pefabloc SC and 1% SDS on ice, then 10 min at the indicated temperatures; western blot with MAb10G; trimer to monomers
# [2] = biological target: MHV-2 S2 fragments made by trypsin after receptor binding (69 and 67 kDa) (mouse hepatitis virus type 2 (MHV-2)); test: SDS-PAGE of samples heated in 1% SDS (dissociation temperature of the trimer); post-fusion state (MHV-2 with receptor, then trypsin at 37°C), no HR2-peptide; 5 mM Pefabloc SC and 1% SDS on ice, then 10 min at the indicated temperatures; western blot with MAb10G; trimer to monomers
# [3] = biological target: MHV-2 spike (S) protein, uncleaved 180 kDa, on authentic virus (mouse hepatitis virus type 2 (MHV-2)); test: SDS-PAGE of samples heated in 1% SDS (dissociation temperature of the trimer); pre-fusion state (untreated MHV-2), with or without HR2-peptide; 5 mM Pefabloc SC and 1% SDS on ice, then 10 min at the indicated temperatures; western blot with MAb10G; trimer to monomers
# [4] = biological target: MHV-2 spike (S) protein, uncleaved 180 kDa, on authentic virus (mouse hepatitis virus type 2 (MHV-2)); test: SDS-PAGE of samples heated in 1% SDS (dissociation temperature of the trimer); receptor-binding state (MHV-2 with soluble receptor), with or without HR2-peptide; 5 mM Pefabloc SC and 1% SDS on ice, then 10 min at the indicated temperatures; western blot with MAb10G; trimer to monomers
Substance,dissociation temperature of the trimer in 1% SDS [1] [°C],dissociation temperature of the trimer in 1% SDS [2] [°C],stoichiometry N [2],dissociation temperature of the trimer in 1% SDS [3] [°C],stoichiometry N [3],dissociation temperature of the trimer in 1% SDS [4] [°C]
MHV-2 S2 fragments made by trypsin after receptor binding (69 and 67 kDa) (domain or fragment),80,100,3,–,–,–
"MHV-2 spike (S) protein, uncleaved 180 kDa, on authentic virus (natural protein)",–,–,–,< 25,3,65
